Patent US20240059766A1 (VOYAGER THERAPEUTICS, published 2024)
Non-standard residues stand in square brackets, D forms with d. No end group written: not given here. pT = C[C@@H](OP(=O)(O)O)[C@H](N)C(=O)O

T1: AT8 peptide (amino acids 195-215 of tau) (human, phospho-peptide; the phosphorylated sites are not stated; immobilized on streptavidin biosensor tips)
T1 peptide: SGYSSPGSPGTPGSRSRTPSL

T2: AT270 peptide (pT181; Tau172-186) (human)
T2 peptide: PAKTPPAPK[pT]PPSSG


Experiments:
[1] = target: T1, AT8 peptide (amino acids 195-215 of tau); experiment: BLI (Octet), peptide on streptavidin tip
Experimental: Briefly, phospho-peptides were immobilized on streptavidin biosensor tips and the binding ability of each antibody was assessed using an eight-point concentration gradient.

[2] = target: T3, Tau191-214 phospho-peptide (pS199) (human, pS199 (phosphoserine); SCBio-4PEG in the ELISA); experiment: BLI
T3 construct: also called pS199 peptide

iPHF = iPHF (UniProt P10636-8 2-441); experiment: BLI (Octet), antibody on biosensor tip
Experimental: Anti-human tau antibodies were assessed for affinity for iPHF by Octet (ForteBio, Menlo Park, CA) analysis. A set of recombinant human IgG1 antibodies were prepared with clone-specific variable domain pairs selected from those presented in Table 1 and human IgG1 constant domains. Candidate antibodies were immobilized on biosensor tips (ForteBio) in kinetic buffer (ForteBio). Biosensor tips were then washed before introduction of a solution of iPHF in kinetic buffer for analysis of association and dissociation with candidate antibodies.

[3] = target: Tau191-214 phospho-peptide (pT205) (human, pT205 (phosphothreonine); SCBio-4PEG in the ELISA); experiment: one point ELISA
Excerpt: (§1) One-point ELISA was used to determine differential binding based on the individual phosphorylation patterns of each peptide. OD values (450 nm) were collected (as shown in Table 13), where a stronger positive signal is shown as a higher OD value, which is indicative of increased binding.

[4] = target: T3, Tau191-214 phospho-peptide (pS199); experiment: one point ELISA
Excerpt: as §1

[5] = target: T4, SCBio-4PEG-Peptide (Tau191-214) pS199-old (human, pS199; SCBio-4PEG at the peptide as in the table head); experiment: one point ELISA
T4 construct: the suffix old is not explained
Excerpt: as §1

[6] = target: Tau191-214 phospho-peptide (pS202) (human, pS202 (phosphoserine); SCBio-4PEG in the ELISA); experiment: one point ELISA
Excerpt: as §1

[7] = target: Tau191-214 phospho-peptide (pS199/pT205) (human, pS199, pT205; SCBio-4PEG in the ELISA); experiment: one point ELISA
Excerpt: as §1

[8] = target: Tau191-214 phospho-peptide (pS199/pS202) (human, pS199, pS202; SCBio-4PEG in the ELISA); experiment: one point ELISA
Excerpt: as §1

[9] = target: T5, Enriched paired helical filament (ePHF; sarkosyl insoluble tau) (human, UniProt P10636 2-758, pathological (hyperphosphorylated) tau isolated from brain; sites not stated); experiment: direct ELISA, coated antigen
T5 construct: aggregate isolated from AD frontal cortical tissue
Experimental: A set of recombinant human IgG1 antibodies were prepared with clone-specific variable domain pairs selected from those presented in Table 1 and human IgG1 constant domains. These candidate antibodies were analyzed for binding to ePHF and specificity for ePHF over wild type tau by direct ELISA.
For direct ePHF and wildtype tau ELISA, plates were first coated with ePHF or wild type tau. Antigen solutions were prepared in PBS and 50 μL were pipetted into each well. Plates were covered and incubated for one hour at 37° C. or overnight at 4° C. Plates were then washed and blocked by addition of 150 μl of blocking buffer to each well and incubated one hour at room temperature. Plates were then washed before addition of serially diluted candidate antibody samples prepared in blocking buffer. Detection of candidate antibody binding was carried out by washing plates and adding a solution of enzyme-labeled secondary antibody in blocking buffer to each well. Secondary antibody binding was detected by addition of substrate and spectrophotometric analysis of resulting reaction product.

[10] = target: T2, AT270 peptide (pT181; Tau172-186); experiment: one point ELISA

T5 sequence (P10636 other isoform, or with tags, fused parts or gaps limits assumed): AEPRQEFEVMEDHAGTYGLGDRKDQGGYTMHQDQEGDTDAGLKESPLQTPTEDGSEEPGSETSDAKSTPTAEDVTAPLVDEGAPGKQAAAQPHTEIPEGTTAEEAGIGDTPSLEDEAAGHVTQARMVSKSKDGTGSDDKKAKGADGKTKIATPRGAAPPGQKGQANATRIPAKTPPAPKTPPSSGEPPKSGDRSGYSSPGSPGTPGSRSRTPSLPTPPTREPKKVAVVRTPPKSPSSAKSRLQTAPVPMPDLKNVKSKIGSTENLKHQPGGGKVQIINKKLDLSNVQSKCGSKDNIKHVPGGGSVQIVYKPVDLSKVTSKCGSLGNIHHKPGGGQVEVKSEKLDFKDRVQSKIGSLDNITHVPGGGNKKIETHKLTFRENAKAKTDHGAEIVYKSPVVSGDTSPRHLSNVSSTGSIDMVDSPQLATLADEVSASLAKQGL
Chain of iPHF (P10636 other isoform, or with tags, fused parts or gaps): as the sequence (P10636 other isoform, or with tags, fused parts or gaps limits assumed) above
T4 sequence (peptide, as listed by the source): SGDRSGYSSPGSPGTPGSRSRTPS

| Kd [1] [nM] | binding result [2] | Kd (iPHF) [nM] | OD450 [3] [OD450 nm] | OD450 [4] [OD450 nm] | OD450 [5] [OD450 nm] | OD450 [6] [OD450 nm] | OD450 [7] [OD450 nm] | OD450 [8] [OD450 nm] | EC50 [9] [nM] | binding result [10] | Binder |
| --- | --- | --- | --- | --- | --- | --- | --- | --- | --- | --- | --- |
| 0.0124 | no binding | 4.6 | 0.06 | 0.065 | 0.062 | 0.065 | 0.119 | 0.082 | 0.06 |  | VY003 (antibody, V domains shown) VH: EVQMVESGGGLVQPGGSLTLSCAASGFTFSSYRMNWVRQAPGKGLEWVSYISSSRSAIYYADSVKGRFTISRDNAKNSLYLQMNSLRDEDTAVYYCATLGIGYWGQGTLVTVSS VL: DIVMTQTPLSSPVTLGQPASISCRSSQSLVHSDGNTYLSWLQQRPGQPPRLLIYKISNRFSGVPDRFSGSGAGTDFTLKITRVEAEDVGIYYCMQVTQFPRTFGQGTKVEIR |
| 0.0089 |  | 2 | 0.06 |  |  | 0.06 |  |  | 0.03 | no binding | VY011 (antibody, V domains shown) VH: QVQLQESGPGLVKPSETLSLTCTVSGGSISNYYWTWIRQPAGKGLEWIGRVYTSGSANYNPSLKSRVTMSVDTSKNQFSLTLSSVTAADTAVYYCARDRGLYYWGQGTLVTVSS VL: DIVMTQTPLSSLVTLGQPASISCRSSQSLVHSDGNTYLSWLQQRPGQPPRLLIYKISKRFFGVPDRFSGSGAGTDFTLKINRVEAEDVGIYYCMQATQFPLTFGGGTKVEIK |
